Test results from patent US20150196651A1 (published 2015).
Numbered stars: 1 amine (or outer) side, 2 acyl side, 3 side chain; on linkers, the order of the positions; unused ones are H or OH. Square brackets hold non-standard residues; d marks the D form. Side chains are listed from the residue outwards. Ends that are not written are not given here. * marks the point of attachment. γGlu = O=C(O)[C@H](CCC(=O)[*:2])N[*:1]; 1Nal = N[C@@H](Cc1cccc2ccccc12)C(=O)O; Stearoyl = CCCCCCCCCCCCCCCCCC(=O)*; Palmitoyl = CCCCCCCCCCCCCCCC(=O)*; Myristoyl = CCCCCCCCCCCCCC(=O)*; PheCl2 = dichlorophenylalanine; Lauroyl = CCCCCCCCCCCC(=O)*; Decanoyl = CCCCCCCCCC(=O)*; Nle = CCCC[C@H](N)C(=O)O; Octanoyl = CCCCCCCC(=O)*; GABA = NCCCC(=O)O

T1: rat PrRP receptor in RC-4B/C cells (rat, UniProt Q64121 1-370)
T1 construct: whole, on cells; endogenous receptor of RC-4B/C cells (ATCC); also called rat receptor; GPR10 receptor expressed in rat hypophyseal cells
T1 sequence (looked up): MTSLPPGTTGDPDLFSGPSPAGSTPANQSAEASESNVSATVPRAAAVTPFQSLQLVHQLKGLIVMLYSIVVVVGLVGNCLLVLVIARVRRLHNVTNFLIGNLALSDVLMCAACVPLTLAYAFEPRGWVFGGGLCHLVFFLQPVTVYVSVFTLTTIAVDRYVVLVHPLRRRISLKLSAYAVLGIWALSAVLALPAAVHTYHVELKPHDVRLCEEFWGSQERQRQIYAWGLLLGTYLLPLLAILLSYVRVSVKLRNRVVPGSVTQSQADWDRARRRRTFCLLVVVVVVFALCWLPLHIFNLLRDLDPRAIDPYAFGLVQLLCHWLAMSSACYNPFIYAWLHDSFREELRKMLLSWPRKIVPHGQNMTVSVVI

T2: human PrRP receptor GPR10 (human, UniProt P49683 1-370)
T2 construct: whole, on cells; also called GPR10 human receptor transfected in CHO cells; human GPR10 receptor
T2 sequence (looked up): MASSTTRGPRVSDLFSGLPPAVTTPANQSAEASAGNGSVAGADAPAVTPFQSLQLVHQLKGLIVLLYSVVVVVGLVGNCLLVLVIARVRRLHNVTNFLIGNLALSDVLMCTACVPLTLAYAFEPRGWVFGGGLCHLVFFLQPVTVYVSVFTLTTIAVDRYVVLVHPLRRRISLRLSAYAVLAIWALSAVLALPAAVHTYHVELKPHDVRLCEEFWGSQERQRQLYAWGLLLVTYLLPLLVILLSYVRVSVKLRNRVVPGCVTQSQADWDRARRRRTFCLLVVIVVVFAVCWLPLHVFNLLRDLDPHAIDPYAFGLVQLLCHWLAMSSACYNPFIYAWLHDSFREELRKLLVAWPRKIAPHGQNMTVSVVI


Columns and labels:
[1] = target: T1, rat PrRP receptor in RC-4B/C cells; experiment: competition with 125I-rat PrRP31, RC-4B/C cells
In short: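 Incubation 60 min at room temperature; cells solubilized in 0.1 mol/l NaOH and bound radioactivity γ-counted. Run in duplicate, repeated at least three times.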

[2] = target: T2, human PrRP receptor GPR10; experiment: competition with 125I-human PrRP31, CHO cells with human GPR10

Row | % of PrRP31 [1] [%] | Ki [1] [nM] | % of PrRP31 [2] [%] | Ki [2] [nM] | Binder
1 | 822 | 0.6 | 161 | 2.41 | Lauroyl-TPDINPAWYASRGIRPVGRF-NH2 (SMILES CCCCCCCCCCCC(=O)N[C@H](C(=O)N1CCC[C@H]1C(=O)N[C@@H](CC(=O)O)C(=O)N[C@H](C(=O)N[C@@H](CC(N)=O)C(=O)N1CCC[C@H]1C(=O)N[C@@H](C)C(=O)N[C@@H](Cc1c[nH]c2ccccc12)C(=O)N[C@@H](Cc1ccc(O)cc1)C(=O)N[C@@H](C)C(=O)N[C@@H](CO)C(=O)N[C@@H](CCCNC(=N)N)C(=O)NCC(=O)N[C@H](C(=O)N[C@@H](CCCNC(=N)N)C(=O)N1CCC[C@H]1C(=O)N[C@H](C(=O)NCC(=O)N[C@@H](CCCNC(=N)N)C(=O)N[C@@H](Cc1ccccc1)C(N)=O)C(C)C)[C@@H](C)CC)[C@@H](C)CC)[C@@H](C)O) [analog no. 41]
2 | 530 | 0.93 | 201 | 1.94 | Octanoyl-TPDINPAWYASRGIRPVGRF-NH2 (SMILES CCCCCCCC(=O)N[C@H](C(=O)N1CCC[C@H]1C(=O)N[C@@H](CC(=O)O)C(=O)N[C@H](C(=O)N[C@@H](CC(N)=O)C(=O)N1CCC[C@H]1C(=O)N[C@@H](C)C(=O)N[C@@H](Cc1c[nH]c2ccccc12)C(=O)N[C@@H](Cc1ccc(O)cc1)C(=O)N[C@@H](C)C(=O)N[C@@H](CO)C(=O)N[C@@H](CCCNC(=N)N)C(=O)NCC(=O)N[C@H](C(=O)N[C@@H](CCCNC(=N)N)C(=O)N1CCC[C@H]1C(=O)N[C@H](C(=O)NCC(=O)N[C@@H](CCCNC(=N)N)C(=O)N[C@@H](Cc1ccccc1)C(N)=O)C(C)C)[C@@H](C)CC)[C@@H](C)CC)[C@@H](C)O) [analog no. 39]
3 | 128 | 3.84 | 171 | 2.27 | SRAHQHS[Nle]ETRTPDINPAWYTGRGIRPVGR[PheCl2]-NH2 [analog no. 13]
4 | 275 | 1.79 | 409 | 0.95 | Myristoyl-SRAHQHS[Nle]ETRTPDINPAWYTGRGIRPVGR[PheCl2]-NH2 [analog no. 14]
5 | 1200 | 0.41 | 129 | 3.02 | Decanoyl-TPDINPAWYASRGIRPVGRF-NH2 (SMILES CCCCCCCCCC(=O)N[C@H](C(=O)N1CCC[C@H]1C(=O)N[C@@H](CC(=O)O)C(=O)N[C@H](C(=O)N[C@@H](CC(N)=O)C(=O)N1CCC[C@H]1C(=O)N[C@@H](C)C(=O)N[C@@H](Cc1c[nH]c2ccccc12)C(=O)N[C@@H](Cc1ccc(O)cc1)C(=O)N[C@@H](C)C(=O)N[C@@H](CO)C(=O)N[C@@H](CCCNC(=N)N)C(=O)NCC(=O)N[C@H](C(=O)N[C@@H](CCCNC(=N)N)C(=O)N1CCC[C@H]1C(=O)N[C@H](C(=O)NCC(=O)N[C@@H](CCCNC(=N)N)C(=O)N[C@@H](Cc1ccccc1)C(N)=O)C(C)C)[C@@H](C)CC)[C@@H](C)CC)[C@@H](C)O) [analog no. 40]
6 | 190 | 1.26 | 42.5 | 9.19 | SRTHRHSMEIK([GABA-Palmitoyl])TPDINPAWYASRGIRPVGRF-NH2 [analog no. 53]
7 | 236 |  | 83 | 4.72 | SETHRHSMEIK([γGlu-Palmitoyl])TPDINPAWYASRGIRPVGRF-NH2 [analog no. 55]
8 | 663 | 0.36 | 103 | 3.79 | SRTHRHSMEIKTPDINPAWYASRGIRPVGRF-NH2 (not fully specified (residue 11)) [analog no. 57]
9 | 57 | 4.23 | 57 | 5.66 | SETHEHSMEIK([γGlu-Palmitoyl])TPDINPAWYASRGIRPVGRF-NH2 (N-terminus assumed; SMILES CCCCCCCCCCCCCCCC(=O)N[C@@H](CCC(=O)NCCCC[C@H](NC(=O)[C@@H](NC(=O)[C@H](CCC(=O)O)NC(=O)[C@H](CCSC)NC(=O)[C@H](CO)NC(=O)[C@H](Cc1c[nH]cn1)NC(=O)[C@H](CCC(=O)O)NC(=O)[C@H](Cc1c[nH]cn1)NC(=O)[C@@H](NC(=O)[C@H](CCC(=O)O)NC(=O)[C@@H](N)CO)[C@@H](C)O)[C@@H](C)CC)C(=O)N[C@H](C(=O)N1CCC[C@H]1C(=O)N[C@@H](CC(=O)O)C(=O)N[C@H](C(=O)N[C@@H](CC(N)=O)C(=O)N1CCC[C@H]1C(=O)N[C@@H](C)C(=O)N[C@@H](Cc1c[nH]c2ccccc12)C(=O)N[C@@H](Cc1ccc(O)cc1)C(=O)N[C@@H](C)C(=O)N[C@@H](CO)C(=O)N[C@@H](CCCNC(=N)N)C(=O)NCC(=O)N[C@H](C(=O)N[C@@H](CCCNC(=N)N)C(=O)N1CCC[C@H]1C(=O)N[C@H](C(=O)NCC(=O)N[C@@H](CCCNC(=N)N)C(=O)N[C@@H](Cc1ccccc1)C(N)=O)C(C)C)[C@@H](C)CC)[C@@H](C)CC)[C@@H](C)O)C(=O)O) [analog no. 56]
10 | 85 | 2.82 | 12 | 32.4 | SRTHRHSMEIKTPDINPAWYASRGIRPVGRF ((N-palm(N-POE)) at the N-terminus; K(N-palm(N-POE)) at residue 11; C-terminal amide) [analog no. 59]

The next lines start with the binder.

Row | Binder | % of PrRP31 [1] [%] | Ki [1] [nM] | % of PrRP31 [2] [%] | Ki [2] [nM]
11 | Stearoyl-SRAHQHS[Nle]ETRTPDINPAWYTGRGIRPVGRF-NH2 [analog no. 9] | 514 | 0.96 | 72 | 5.39
12 | Octanoyl-SRAHQHS[Nle]ETRTPDINPAWYTGRGIRPVGRF-NH2 [analog no. 4] | 503 | 0.98 | 254 | 1.53
13 | Palmitoyl-SRAHQHS[Nle]ETRTPDINPAWYTGRGIRPVGRF-NH2 [analog no. 8] | 967 | 0.51 | 128 | 3.03
14 | Myristoyl-SRAHQHS[Nle]ETRTPDINPAWYTGRGIRPVGRF-NH2 [analog no. 7] | 714 | 0.69 | 548 | 0.71
15 | Decanoyl-SRAHQHS[Nle]ETRTPDINPAWYTGRGIRPVGRF-NH2 [analog no. 5] | 758 | 0.65 | 266 | 1.46
16 | Palmitoyl-SRAHQHS[Nle]ETRTPDINPAWYTGRGIRPVGR[1Nal]-NH2 [analog no. 12] | 227 | 2.17 | 91 | 4.27
17 | Lauroyl-SRAHQHS[Nle]ETRTPDINPAWYTGRGIRPVGRF-NH2 [analog no. 6] | 1260 | 0.39 | 327 | 1.19
18 | SRAHQHS[Nle]ETRTPDINPAWYTGRGIRPVGR[1Nal]-NH2 [analog no. 10] | 4.8 | 102 | 11 | 34.5
19 | Myristoyl-TPDINPAWYASRGIRPVGRF-NH2 (SMILES CCCCCCCCCCCCCC(=O)N[C@H](C(=O)N1CCC[C@H]1C(=O)N[C@@H](CC(=O)O)C(=O)N[C@H](C(=O)N[C@@H](CC(N)=O)C(=O)N1CCC[C@H]1C(=O)N[C@@H](C)C(=O)N[C@@H](Cc1c[nH]c2ccccc12)C(=O)N[C@@H](Cc1ccc(O)cc1)C(=O)N[C@@H](C)C(=O)N[C@@H](CO)C(=O)N[C@@H](CCCNC(=N)N)C(=O)NCC(=O)N[C@H](C(=O)N[C@@H](CCCNC(=N)N)C(=O)N1CCC[C@H]1C(=O)N[C@H](C(=O)NCC(=O)N[C@@H](CCCNC(=N)N)C(=O)N[C@@H](Cc1ccccc1)C(N)=O)C(C)C)[C@@H](C)CC)[C@@H](C)CC)[C@@H](C)O) [analog no. 2] | 1030 | 0.48 | 90 | 4.33
20 | Myristoyl-SRAHQHS[Nle]ETRTPDINPAWYTGRGIRPVGR[1Nal]-NH2 [analog no. 11] | 124 | 3.96 | 292 | 1.33
